Laboratory results: US7060795 (KIMBERLY CLARK WORLDWIDE, dated 2006)

What was measured:
[1] = target: T1, matrix metalloproteinase-1 (MMP-1) (UniProt P03956 100-469, limits assumed); experiment: fluoresceinated collagen hydrolysis assay, Dixon plot, competitive inhibition assumed; target MMP-1
T1 sequence (looked up): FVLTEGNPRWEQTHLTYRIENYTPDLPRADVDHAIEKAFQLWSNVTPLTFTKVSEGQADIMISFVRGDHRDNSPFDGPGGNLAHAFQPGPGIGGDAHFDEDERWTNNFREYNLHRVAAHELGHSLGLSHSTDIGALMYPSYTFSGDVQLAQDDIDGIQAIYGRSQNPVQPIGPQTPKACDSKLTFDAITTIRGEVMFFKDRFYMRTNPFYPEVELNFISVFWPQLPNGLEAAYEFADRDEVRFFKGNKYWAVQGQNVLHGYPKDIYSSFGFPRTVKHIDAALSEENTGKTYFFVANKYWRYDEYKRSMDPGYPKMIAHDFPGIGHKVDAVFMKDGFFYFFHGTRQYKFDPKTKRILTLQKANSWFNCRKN
Procedure: (§1) Inhibition of MMPs: The assay employed measured the enzymatic hydrolysis of fluoresceinated collagen by MMP-9 or other matrix metalloproteinases as a function of time. Fluoresceinated collagen at a concentration of 5 μM was added to reaction buffer (50 mM Tris-HCl (pH 7.6), 150 mM NaCl, 5 mM CaCl_2, 0.1 mM NaN_3) and was placed into a Spectrosil quartz fluorimeter cuvette. MMP at a concentration of 0.1 μM was mixed with varying amounts of polypeptide inhibitor (SEQ ID NO:5 or SEQ ID NO:20) and incubated at 25° C. for 10 minutes in order to effect binding. The protein mixture was added to the collagen substrate, and mixed. Fluorescence emission intensity at 520 nm was measured as a function of time using an excitation wavelength of 495 nm in a Shimadzu RF5301 fluorimeter. The fluorescein release assay was used to determine the inhibitory constant (K_i) of the protein based matrix metalloproteinase inhibitor ([I]) according to Segel (1993) by using Dixon plots (1/v vs. [I]), where: […]

[2] = target: T2, matrix metalloproteinase-9 (MMP-9) (UniProt P14780 107-707, limits assumed); experiment: SPR (BiaCore-X, CM-5 chip); MMP-9 coupled to the chip, SEQ ID NO:5 polypeptide in PBS flowed over
T2 sequence (P14780 107-707 limits assumed): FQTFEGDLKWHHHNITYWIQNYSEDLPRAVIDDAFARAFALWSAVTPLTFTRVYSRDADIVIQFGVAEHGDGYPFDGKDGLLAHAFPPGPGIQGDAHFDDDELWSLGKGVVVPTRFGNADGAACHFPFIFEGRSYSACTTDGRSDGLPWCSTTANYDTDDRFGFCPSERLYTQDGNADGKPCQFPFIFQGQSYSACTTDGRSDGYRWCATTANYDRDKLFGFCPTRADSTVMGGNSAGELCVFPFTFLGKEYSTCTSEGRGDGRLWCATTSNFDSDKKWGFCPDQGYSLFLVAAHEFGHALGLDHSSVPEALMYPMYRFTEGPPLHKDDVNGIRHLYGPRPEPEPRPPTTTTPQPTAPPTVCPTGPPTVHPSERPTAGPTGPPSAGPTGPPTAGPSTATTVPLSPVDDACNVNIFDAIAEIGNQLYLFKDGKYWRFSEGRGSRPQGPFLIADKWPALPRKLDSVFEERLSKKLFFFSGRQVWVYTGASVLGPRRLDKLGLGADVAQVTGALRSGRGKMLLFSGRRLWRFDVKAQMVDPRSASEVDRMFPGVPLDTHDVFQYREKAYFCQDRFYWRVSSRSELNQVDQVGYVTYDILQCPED

[3] = target: T2, matrix metalloproteinase-9 (MMP-9); experiment: fluoresceinated collagen hydrolysis assay, Dixon plot, competitive inhibition assumed; target MMP-9
Procedure: as §1

[4] = target: T2, matrix metalloproteinase-9 (MMP-9); experiment: SPR (BiaCore-X, CM-5 chip); KA = ka/kd

Ki [1]: 0.012 µM | koff [2]: 0.0013 s⁻¹ | kon [2]: 200000 M⁻¹ s⁻¹ | Ki [3]: 0.016 µM | Ka [4]: 1.5e+08 M⁻¹
B1: SEQ ID NO:5 polypeptide (DST; Delta Synthetic TIMP), purified Fraction IV protein (designed binder)
chain: CSCSPVHPQQAFSNADVVIRAKAVSEKEVDSGNDIYGNPIKRIQYEIKQIKMFKGPEKDIEFIYTAPSSAVCGVSLDVGGKKEYCIAGKAEGDGKMHITLCDFICPW
notes: It was expressed in E. coli as an MBP fusion and cleaved with Factor Xa; It is monomeric by gel filtration; Three disulfide bonds; also called DST protein
